In publication PMC7910438, “The TUTase URT1 connects decapping activators and prevents the accumulation of excessively deadenylated mRNAs to avoid siRNA biogenesis” (Nature Communications, 2021):

Molecular target: T1, 6His-GST-URT1 (Arabidopsis thaliana, UniProt O64642 1-764)
T1 construct: URT1, Arabidopsis thaliana, AT2G45620, 764 amino acids; amplified from cDNA; Plasmids in Supplementary Data 7; expression and purification in Supplementary Methods; source: E. coli BL21 DE3, purified; not shown: 6His, N-terminal, kept; GST, N-terminal, kept
T1 sequence (looked up): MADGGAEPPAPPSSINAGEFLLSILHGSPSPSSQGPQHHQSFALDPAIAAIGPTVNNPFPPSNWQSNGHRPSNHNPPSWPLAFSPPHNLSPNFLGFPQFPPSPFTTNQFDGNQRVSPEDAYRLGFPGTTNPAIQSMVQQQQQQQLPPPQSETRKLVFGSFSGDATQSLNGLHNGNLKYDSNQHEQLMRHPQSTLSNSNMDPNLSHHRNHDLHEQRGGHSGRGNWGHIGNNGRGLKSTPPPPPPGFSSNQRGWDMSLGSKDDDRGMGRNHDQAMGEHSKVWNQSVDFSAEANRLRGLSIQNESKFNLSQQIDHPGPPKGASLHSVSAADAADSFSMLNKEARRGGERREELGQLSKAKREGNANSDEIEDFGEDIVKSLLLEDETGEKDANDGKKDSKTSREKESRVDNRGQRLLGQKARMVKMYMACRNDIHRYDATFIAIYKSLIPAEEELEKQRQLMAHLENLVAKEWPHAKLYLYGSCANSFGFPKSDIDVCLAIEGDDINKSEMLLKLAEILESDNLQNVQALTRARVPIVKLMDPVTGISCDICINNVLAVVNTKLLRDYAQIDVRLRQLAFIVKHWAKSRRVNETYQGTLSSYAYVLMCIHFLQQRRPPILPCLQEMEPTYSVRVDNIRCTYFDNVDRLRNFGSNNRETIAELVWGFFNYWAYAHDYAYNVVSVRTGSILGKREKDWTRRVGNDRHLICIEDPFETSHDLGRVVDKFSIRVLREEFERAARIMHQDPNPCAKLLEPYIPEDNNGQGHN
Experiment: pull-down; GST pull-down on glutathione sepharose; 10 pmol of each purified protein in 500 µl of 20 mM MOPS pH 7.2, 100 mM KCl, 15% glycerol, 0.1% Tween 20 with 100 ng/µl RNase A, 4 °C; SDS-PAGE, SYPRO Ruby
Conditions: both partners purified

B1: 6His-MBP-DCP5 (natural protein, Arabidopsis thaliana, UniProt Q9C658 1-611, looked up)
chain: MAADNTGSKSSSAADSYVGSLISLTSKSEIRYEGILYNINTDESSIGLQNVRSFGTEGRKKDGPQVPPSDKVYEYILFRGTDIKDLQVKASPPVQPPASTINNDPAIIQSHYPSPMPTSGSLPSTASGSLPDISSHNGQPGQHGMGFQNAMPLYQPGGNLGSWGASPQPPMYWQGFYTPPPNGLPQLHQQSLIRPPHGLPMPNSLQQPLQYPNFNTPPPPTGSSSLQGSSLPEAPSSLFPFSTSSQMLAPSSLPFPGLPPVTLSSSLQSTLQSAPSPSLASEMAPPLLSNKAPITAPPTLPQDTNLLSFSLSTTRATEASTGLPLSNKPSVVTGPISPPQTTPLTSAPVAGVSSSISQDKPKPLLVTPGQLLQSGSSAVSLSPPSTNADKDVEVVQVSSSAGLEQSVPVTSEAQPPILPLPSSARPTQKPNGHSFPNHNGYRGRGRGRGRGAGRSHQVMKFTEDFDFTAMNEKFNKDEVWGHLGKSTTLDGDEDDDSPTVDEAELPKIEAKPVYNKDDFFDSLSSNTIDRESQNSRPRFSEQRKLDTETFGEFSRFRGGRGGRGGYGRNNGYSRGGYGGRGYGGYGGRGGGGGGYGYGGRGQGRGVSNRTT
notes: DECAPPING 5 (DCP5), Arabidopsis thaliana, AT1G26110; amplified from cDNA; source: E. coli BL21 DE3, purified; not shown: 6His, N-terminal, kept; MBP, N-terminal, kept
  binding result: binds
